Literature values in publication PMC4155411.
pKd: −log10 of the molar value.

Molecular target: HPr (Escherichia coli) (UniProt P0AA04)
Assay: PRE NMR titration

## Enzyme I N-terminal domain (EIN) N-terminal domain (from UniProt P08839)
  pKd: 5.15
